Source: patent US20220315908A1, “NOVEL GARDNERELLA ENDOLYSINS AND USES THEREOF” (priority 2019, published 2022)

B1: H7B7: natural Gardnerella prophage endolysin from strain AMD (protein)
chain: MSKKGIDVSEWQGDIDFNAVKASGVEFVIIRAGYGIGCKDKWFEQNYRKAKTAGLDVGAYWYSYANSASEAAEEAQSCANMLSGKSFEYPVYFDLEEKSQLNRGRAFCDSLITSFCSKLETYGYYAGFYTSLSTANNLVSSHVRNRYALWIAQWNTHCSYQGSYGLWQYSSSGSVPGVAGRVDMDYAYKDYPSIIKNAGLNGCKNGGSDQAARTSSIDEVAREVINGAWGNGNERKQRLTQAGYDYTSVQNKVNKLLGVKACRKSVDELAREVIRGTWGNGNERKNRLTQAGYDYDTVQKRVNELL
modifications: EL7_strain_AMD
notes: natural Gardnerella prophage endolysin from strain AMD
B2: H10B10: natural Gardnerella prophage endolysin from strain G30-4 (protein)
chain: MSKRGIDVSVWQGDIDFNAVKASGVEFVIIRAGYGIGHKDKWFEENYRKAKTVGLDVGAYWYSYASSAGEASEEAQSCVNILSGKSFEYPVYFDLEEKSQLNRGRDFCDSLITSFCNKLEACGYYAGFYTSLSVANNLVSSHVRDRYALWIAQWNTHCSYQGSYGLWQYSSSGSVNGIAGRVDMDYAYVDYPSVIKNAGLNGYKNGGSYTAPQISSIDEVAREVINGDWGNGNERKQRLTSAGYDYASVQNKVNELLGVKAYRKSVDELAREVIRGTWGNGSTRKQRLTQAGYDYNAVQKRVNELL
modifications: EL10_strain_G30-4
B3: H11B11: natural Gardnerella prophage endolysin from strain JCP8017A (protein)
chain: MSKRGIDVSVWQGDIDFNAVKASGVEFVIIRAGYGIGHKDKWFEQNYRKAKTTGLDVGAYWYSYASSAGEAAEEAQSCVNILSGKSFEYPVYFDLEEKSQLNRGRDFCDSLITSFCNKLETYGYYAGFYTSLSVANNLVSSHVRDRYALWIAQWNTHCDYQGSYGLWQYSSSGSVDGIAGRVDMDYTYVDYPSVIKKAGLNGYKNGGSYTAPQTSSIDEVAREVINGDWGNGNERKNRLTSAGYDYTSVQNKVNELLGVKAYRKSVDELAREVIRGTWGNGSTRKQRLTQAGYDYDAVQKRVNELL
modifications: EL11_strain_JCP8017A
notes: natural Gardnerella prophage endolysin from strain JCP8017A
B4: H12B12: natural Gardnerella prophage endolysin from strain 3549624 (protein)
chain: MSKKGIDVSVWQGDIDFNAVKASGVEFVIIRAGYGIGHKDKWFEENYRKAKTAGLDVGSYWYSYASSAGEVALEAQSCVNILSGKSFEYPVYFDLEEKSQLNRGRDFCDSLITSFCNKLEACGYYAGFYTSLSVANNLVSSHVRDRYALWIAQWNTHCSYQGSYGLWQYSSSGSVNGIAGRVDMDYAYVDYPSVIKNAGLNGYQNGGSYTAPQTSSIDEVAREVINGDWGNGIERKNRLTSAGYDYTSVQNKVNELLGVKAYRKSVDELAREVIRGTWGNGKTRKQRLTQAGYDYNAVQKRVNELL
modifications: EL12_strain_3549624_non-prophage

Key:
[1] = tested on: Gardnerella cells; assay: Turbidity reduction (OD) assay of Gardnerella suspensions; assay type: cell-based; settings: Gv_10 pH 6.0, Gv_17 pH 7.0, Gv_23 pH 7.4; aerobic, room temperature; vs buffer
Method: FIGS. 4A to 4C show three enzymatic activity assays where the enzymatic activity of natural Gardnerella prophage endolysins of the present disclosure is measured by detecting the change in turbidity of a suspension of Gardnerella cells. In FIG. 4A, the enzymatic activity of the endolysins is measured by detecting the change in turbidity of a suspension of the G. leopoldii strain Gv_10 at pH 6.0. In FIG. 4B, the enzymatic activity of the endolysins is measured by detecting the change in turbidity of a suspension of the G. piotii strain Gv_17 at pH 7.0. In FIG. 4C, the enzymatic activity of the endolysins is measured by detecting the change in turbidity of a suspension of the G. swidsinskii strain Gv_23 at pH 7.4. Treatment was conducted in a medium adjusted to the appropriate pH in a photometric cuvette against buffer. Then, the change in turbidity was assessed by measuring the optical density (OD) at 600 nm. As a result, the drop in turbidity was more pronounced for the endolysin treated groups than for the buffer, indicating enzymatic activity.
To test the activity of the purified endolysins, the turbidity change of Gardnerella suspensions (see Table 2) was measured at 610-620 nm using essentially the method described in Reference Example 2, where 95 ul of bacterial suspension in Hardy Broth at the indicated pH was mixed with 5 ul of endolysin solution in a photometric cuvette under aerobic conditions at room temperature. In turbidity reduction assays, a decrease in light scattering (i.e., turbidity reduction) of a suspension of live cells can be used in a spectrophotometer to assay the activity of peptidoglycan hydrolases. The reduction in optical density over time (minutes) can be used to calculate a rate of hydrolysis. Results are compared to a “no-enzyme added, buffer only” control preparation treated identically for the same period of time. In this manner, a specific activity of the enzyme preparation can be reported as ΔOD/time/ul lysin protein. […] As explained above, due to the low content of peptidoglycan in the cell wall, the fact that a peptidoglycan-degrading enzyme such as the identified endolysins could efficiently lyse the bacterial cell walls was an unexpected and surprising discovery.
Gardnerella cells were recovered from cryo stock by plating on Chocolate Agar plates (Beckton Dickinson) and incubating for 48 h at 37° C. under anaerobic conditions. For Lactobacilli, BD Schaedler/5% sheep blood agar plates were used instead. Colonies were scraped from the plate, resuspended in Hardy Broth or NYC-III-HS-5.0 at the pH as indicated, and the suspension adjusted to OD (610 or 620 nm as indicated) 0.1. It has to be noted that two Tecan Microplate readers, having respectively a 610 nm or 620 nm filter, have been used interchangeably in the experiments. Although it doesn't make any difference for the experiments, the exact wavelength used is specified in each example. If not stated otherwise, 90 μl cell suspension was mixed with 10 μl endolysin solution, for the different species/endolysin combinations, in 384-well plates. OD(610-620 nm as indicated) was measured at the beginning of the reaction and at the end, either as two measurement points or as a continuous kinetic in a Tecan F200 Microplate reader. The reactions were incubated for 5 hours (or otherwise the time indicated) at 37° C. under anaerobic, micro-aerophilic or aerobic conditions as indicated. Anaerobic conditions intend that oxygen was fully depleted from the container in which the bacteria are incubated (Sigma-Aldrich anaerobic jar or sealable lunch box) with an anaerobic sachet, and the lack of oxygen was confirmed with an anaerobic indicator inside the container. Where micro-aerophilic conditions are indicated, the candle-in-a-jar method was used (tea candle lit in an appropriate sealable container, which reduces oxygen levels until the flame dies out). […]

[2] = tested on: G. vaginalis sensu stricto strain Gv_9; assay: Quantitative reduction in viable CFU assay in bacterial suspension; assay type: cell-based, Gardnerella vaginalis sensu stricto; settings: Gv_9; 5 hours, pH 5.0, anaerobic; 10 ul endolysin (0.2 mg/ml where possible) + 90 ul 5e7 CFU/ml; average of triplicate
Method: The lysis activity on the four main species of Gardnerella of 91 constructs (natural and domain-swapped endolysins) was quantitatively assessed using the method described in Reference Example 2. […]
The results are shown in FIGS. 8A to 8D together with Tables 5A to 5C. In FIGS. 8A to 8D, the logarithmic Y axis depicts the count of surviving cells. The dotted line indicates the limit of detection (LOD) given by plating of 2 ul of the reaction mix (500 CFU/ml). Each combination of the natural 10 H-domains and the natural 9 B-regions was assessed, including the natural endolysins (H1B1, H2B2, H3B3, etc.), plus H6B6. […] The activity of each construct was measured on each of the 4 main Gardnerella species G. vaginalis sensu stricto, G. leopoldii, G. piotii, and G. swidsinkii. All conditions have been measured in triplicate. The survival after 5 hours incubation at pH 5.0 under anaerobic conditions with endolysins vs. buffer was measured by quantitative plating. The values indicate the log 10 of the ratio of surviving CFU for treated vs. untreated cells. The average of the triplicate measurements is used. In tables 5A and 5B, high negative log 10 values, e.g. −6.7, −5.5, −4.8 etc. are associated with high enzymatic activity, while log 10 values closer to zero or even positive log 10 values are associated with low or no enzymatic activity. […] Inversely, a reduction value of −3.7 means a 10^3.7-fold (=5012-fold) reduction of viable CFU in treated sample vs. untreated control.
Gardnerella cells were recovered from cryo stock by plating on Chocolate Agar plates (Beckton Dickinson) and incubating for 48 h at 37° C. under anaerobic conditions. For Lactobacilli, BD Schaedler/5% sheep blood agar plates were used instead. Colonies were scraped from the plate, resuspended in Hardy Broth or NYC-III-HS-5.0 at the pH as indicated, and the suspension adjusted to OD (610 or 620 nm as indicated) 0.1. It has to be noted that two Tecan Microplate readers, having respectively a 610 nm or 620 nm filter, have been used interchangeably in the experiments. Although it doesn't make any difference for the experiments, the exact wavelength used is specified in each example. If not stated otherwise, 90 μl cell suspension was mixed with 10 μl endolysin solution, for the different species/endolysin combinations, in 384-well plates. OD(610-620 nm as indicated) was measured at the beginning of the reaction and at the end, either as two measurement points or as a continuous kinetic in a Tecan F200 Microplate reader. The reactions were incubated for 5 hours (or otherwise the time indicated) at 37° C. under anaerobic, micro-aerophilic or aerobic conditions as indicated. Anaerobic conditions intend that oxygen was fully depleted from the container in which the bacteria are incubated (Sigma-Aldrich anaerobic jar or sealable lunch box) with an anaerobic sachet, and the lack of oxygen was confirmed with an anaerobic indicator inside the container. Where micro-aerophilic conditions are indicated, the candle-in-a-jar method was used (tea candle lit in an appropriate sealable container, which reduces oxygen levels until the flame dies out). Then each well was diluted in 5 steps (10^−1 to 10^−5) using 96-U-well bottom plates, and 2 μl of each dilution of each reaction mix are plated on BD Chocolate agar plates or BD Schaedler/5% sheep blood agar plates for Gardnerella and Lactobacilli, respectively, for detecting and quantifying surviving CFU. Detection plates were incubated at 37° C. for 48 hours under anaerobic conditions.

Molecule	enzymatic activity by drop in turbidity (capacity to lyse Gardnerella cell walls) [1]	log 10 of the ratio of surviving CFU for treated vs. untreated cells [2] [log 10]
B1	active	−1.6
B2	active	−3.5
B3	active	0.1
B4	active	−0.2
